Data: publication PMC6919976

Biological target: ribosomes isolated from wildtype CHO cells (hamster (endogenous in CHO))

rate of phosphorylation of eIF2α (2 µM) by GCN2 in vitro, with wildtype ribosomes against none: 10 fold
Substance: GCN2, StrepII-tagged, purified from Sf9 cells (from UniProt Q9P2K8 1-1649) (enzyme)
